Laboratory results taken from article PMC13035853, “Mechanism of beta-arrestin 1 mediated Src activation via Src SH3 domain revealed by cryo-electron microscopy” (Nature Communications, 2026).

Biological target: SH3 domain of Src (residues 83-141), wild type, with C-terminal FLAG-tag (chicken, UniProt P00523 83-141)
Test: bimane fluorescence; as a10, for the pair of SH3 (250 nM) and βarr1 V70C-mBr (20 nM), both purified; read-out is the loss of the V2R-induced rise of bimane fluorescence
Details: both partners purified

binding result: binds
B1: βarr1-MC-393 V70C labeled with monobromobimane (natural protein, rat, UniProt P29066 1-393, looked up)
chain: MGDKGTRVFKKASPNGKLTVYLGKRDFVDHIDLVDPVDGVVLVDPEYLKERRVYVTLTAAFRYGREDLDCLGLTFRKDLFVANVQSFPPAPEDKKPLTRLQERLIKKLGEHAYPFTFEIPPNLPSSVTLQPGPEDTGKAIGVDYEVKAFVAENLEEKIHKRNSVRLVIRKVQYAPERPGPQPTAETTRQFLMSDKPLHLEASLDKEIYYHGEPISVNVHVTNNTNKTVKKIKISVRQYADIVLFNTAQYKVPVAMEEADDTVAPSSTFSKVYTLTPFLANNREKRGLALDGKLKHEDTNLASSTLLREGANREILGIIVSYKVKVKLVVSRGGLLGDLASSDVAVELPFTLMHPKPKEEPPHREVPESETPVDTNLIELDTNDDDIVFEDFAR
modifications: bimane (mBr) on C70 of the finger loop
notes: beta-arrestin 1, rat, minimal cysteine and truncated variant (MC-393) with V70C; also called βarr1 V70C-mBr; βarr1 finger loop bimane; source: E. coli BL21 derivative, purified; labeled with monobromobimane, free label removed by SEC
